Data from patent US20120301394A1 (published 2012).

T1: Recombinant mouse MMR (R&D systems) (mouse, UniProt Q61830 20-1388)
T1 construct: Bought recombinant extracellular portion of mouse MMR with a C-terminal His tag; It was immobilized on the CM5 chip for SPR and coated on plates for PE-ELISA; The SPR methods say only 'MMR'; also called mMMR; recombinant MMR
T1 sequence: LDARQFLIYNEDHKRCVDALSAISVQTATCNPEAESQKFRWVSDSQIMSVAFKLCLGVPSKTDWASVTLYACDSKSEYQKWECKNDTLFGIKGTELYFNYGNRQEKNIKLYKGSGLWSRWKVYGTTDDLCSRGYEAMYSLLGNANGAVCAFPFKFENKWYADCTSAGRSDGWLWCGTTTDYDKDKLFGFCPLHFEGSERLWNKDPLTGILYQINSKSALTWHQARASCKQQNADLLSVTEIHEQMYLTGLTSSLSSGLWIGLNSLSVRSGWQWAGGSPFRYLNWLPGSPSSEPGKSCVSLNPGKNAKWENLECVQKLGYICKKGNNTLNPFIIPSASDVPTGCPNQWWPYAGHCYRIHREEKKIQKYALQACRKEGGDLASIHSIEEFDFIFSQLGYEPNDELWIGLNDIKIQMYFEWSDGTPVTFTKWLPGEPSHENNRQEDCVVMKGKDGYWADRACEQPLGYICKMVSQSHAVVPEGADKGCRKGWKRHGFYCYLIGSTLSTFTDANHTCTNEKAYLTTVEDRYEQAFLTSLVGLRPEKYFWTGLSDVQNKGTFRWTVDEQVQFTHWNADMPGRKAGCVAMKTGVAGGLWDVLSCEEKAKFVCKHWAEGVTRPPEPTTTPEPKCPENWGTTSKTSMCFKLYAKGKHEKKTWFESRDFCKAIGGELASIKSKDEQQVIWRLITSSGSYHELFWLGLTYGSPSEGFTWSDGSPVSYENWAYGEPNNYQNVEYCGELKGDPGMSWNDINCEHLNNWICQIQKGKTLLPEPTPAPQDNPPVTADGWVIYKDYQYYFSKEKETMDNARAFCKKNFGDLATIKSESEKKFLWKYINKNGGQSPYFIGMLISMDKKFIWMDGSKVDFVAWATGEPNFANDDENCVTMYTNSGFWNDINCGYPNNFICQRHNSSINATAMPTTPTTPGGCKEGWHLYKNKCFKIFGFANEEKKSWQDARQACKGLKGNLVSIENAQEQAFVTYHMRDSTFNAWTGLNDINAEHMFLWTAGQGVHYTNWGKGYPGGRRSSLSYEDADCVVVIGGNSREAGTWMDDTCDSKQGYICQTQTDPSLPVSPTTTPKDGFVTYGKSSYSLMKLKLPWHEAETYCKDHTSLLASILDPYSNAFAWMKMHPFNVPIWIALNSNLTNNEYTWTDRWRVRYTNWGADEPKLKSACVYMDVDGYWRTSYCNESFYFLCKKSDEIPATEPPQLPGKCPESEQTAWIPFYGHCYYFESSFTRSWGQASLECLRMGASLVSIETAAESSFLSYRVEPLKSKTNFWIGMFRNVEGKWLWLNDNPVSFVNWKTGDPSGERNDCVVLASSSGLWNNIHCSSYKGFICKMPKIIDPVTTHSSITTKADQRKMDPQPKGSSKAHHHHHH

T2: Recombinant human MMR (R&D systems) (human, UniProt P22897 19-1383)
T2 construct: Bought protein (R&D Systems #2534) coated on ELISA plates; also called hMMR; MRC1
T2 sequence: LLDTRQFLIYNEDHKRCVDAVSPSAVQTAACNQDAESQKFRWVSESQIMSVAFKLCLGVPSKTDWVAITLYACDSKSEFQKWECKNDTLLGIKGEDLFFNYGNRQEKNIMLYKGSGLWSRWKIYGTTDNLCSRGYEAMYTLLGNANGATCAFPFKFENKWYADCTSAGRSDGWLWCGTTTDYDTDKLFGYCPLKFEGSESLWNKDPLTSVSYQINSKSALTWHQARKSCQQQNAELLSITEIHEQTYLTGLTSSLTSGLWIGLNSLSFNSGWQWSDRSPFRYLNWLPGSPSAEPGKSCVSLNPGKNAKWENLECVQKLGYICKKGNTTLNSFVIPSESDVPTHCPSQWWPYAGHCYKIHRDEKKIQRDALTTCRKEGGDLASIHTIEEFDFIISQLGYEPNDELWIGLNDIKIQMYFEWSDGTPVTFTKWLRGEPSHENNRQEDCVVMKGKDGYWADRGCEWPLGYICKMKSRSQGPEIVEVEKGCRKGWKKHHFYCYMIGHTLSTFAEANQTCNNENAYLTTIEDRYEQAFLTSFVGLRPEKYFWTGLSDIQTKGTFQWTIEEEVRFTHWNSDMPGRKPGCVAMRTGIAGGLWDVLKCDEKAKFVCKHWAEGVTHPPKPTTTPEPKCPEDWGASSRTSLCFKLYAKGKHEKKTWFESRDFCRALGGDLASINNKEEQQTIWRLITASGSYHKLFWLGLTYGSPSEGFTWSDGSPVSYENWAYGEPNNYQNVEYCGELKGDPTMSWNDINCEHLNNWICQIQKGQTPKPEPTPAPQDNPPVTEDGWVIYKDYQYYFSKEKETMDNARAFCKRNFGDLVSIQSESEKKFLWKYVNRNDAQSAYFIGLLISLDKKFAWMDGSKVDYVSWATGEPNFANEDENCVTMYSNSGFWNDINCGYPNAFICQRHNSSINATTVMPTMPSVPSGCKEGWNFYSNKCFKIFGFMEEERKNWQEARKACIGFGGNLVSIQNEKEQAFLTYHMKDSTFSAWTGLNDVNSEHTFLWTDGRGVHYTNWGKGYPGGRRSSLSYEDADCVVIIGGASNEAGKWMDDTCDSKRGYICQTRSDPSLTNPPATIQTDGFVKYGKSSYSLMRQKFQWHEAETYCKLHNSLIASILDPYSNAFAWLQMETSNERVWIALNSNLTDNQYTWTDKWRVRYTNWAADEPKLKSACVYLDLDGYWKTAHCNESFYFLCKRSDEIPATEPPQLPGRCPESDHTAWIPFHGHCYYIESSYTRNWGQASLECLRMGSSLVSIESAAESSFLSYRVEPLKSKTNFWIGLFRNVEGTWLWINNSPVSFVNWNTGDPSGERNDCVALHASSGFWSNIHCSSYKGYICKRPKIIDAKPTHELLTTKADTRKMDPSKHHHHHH


Tests used:
[1] = biological target: T1, Recombinant mouse MMR (R&D systems); assay: SPR, BIAcore T100, MMR immobilized on CM5 chip, Nb as analyte
Method: (§1) Affinity analysis was performed using a BIAcore T100 (GE Healthcare) with HEPES-buffered saline running buffer (10 mM HEPES with 0.15 M NaCl, 3.4 mM EDTA and 0.005% surfactant P20 at pH 7.4). MRR was immobilized on a CM5 chip in acetate buffer 50 mM (pH 5.0), resulting in 2100 RU MMR coated on the chip. A second channel on the same chip was activated/deactivated in a similar way and served as a negative control. The MMR Nanobodies were used as analytes in eleven different concentrations, ranging from 1 to 2000 nM, at a flow rate of […]. Glycine-HCl 50 mM (pH 2.0) was used for elution. The kinetic and equilibrium parameters (kd, ka and KD) values were calculated from the combined sensogram of all concentrations using BIAcore T100 evaluation software 2.02 (GE Healthcare).
Nanobodies (Nb) were raised against the recombinant extracellular portion of MMR (α-MMR Nb), as described in the Materials and Methods (see also Example 9; Table 4). The binding characteristics of the monovalent anti-MMR nanobodies were compared using surface Plasmon resonance measurements (Table 5). […] Further, bivalent nanobodies were constructed by linking two anti-MMR nanobody 1 entities using (G₄S)₃ ([…]; SEQ ID NO:121), llama IgG2 hinge ([…]; SEQ ID NO:122) or human IgA hinge ([…] SEQ ID NO:123) linkers. […]

[2] = biological target: T2, Recombinant human MMR (R&D systems); assay: listed as a cross-reactive Nb; selection by PE-ELISA on human MMR (Example 26)
[3] = biological target: T1, Recombinant mouse MMR (R&D systems); assay: listed as a cross-reactive Nb; selection by PE-ELISA on mouse MMR (Example 26)
[4] = biological target: T1, Recombinant mouse MMR (R&D systems); assay: SPR on immobilized recombinant MMR
Method: as §1
Nanobodies (Nb) were raised against the recombinant extracellular portion of MMR (α-MMR Nb), as described in the Materials and Methods (see also Example 9; Table 4). The binding characteristics of the monovalent anti-MMR nanobodies were compared using surface Plasmon resonance measurements (Table 5). […] Further, bivalent nanobodies were constructed by linking two anti-MMR nanobody 1 entities using (G₄S)₃ ([…]; SEQ ID NO:121), llama IgG2 hinge ([…]; SEQ ID NO:122) or human IgA hinge ([…] SEQ ID NO:123) linkers. […] As a negative control nanobody in all experiments, we consistently used α-BCII10 Nb, which is a binder of the β-lactamase BCII enzyme of Bacillus cereus.

[5] = biological target: T1, Recombinant mouse MMR (R&D systems); assay: SPR, BIAcore T100, MMR immobilized on CM5 chip, bivalent Nb as analyte
Method: as §1

Binder | fold higher avidity compared to the monovalent clone 1 nanobody [4] | Kd [5] | further results
anti-MMR Nanobody clone 3 (VHH, also called Anti-MMR Nb3; Nb clone 3) VHH: QVQLQESGGGLVQAGGSLRLSCAASGRTFSRDAMGWFRQAPGKEREFVAGISWSGGSTYYADSVKGRFTISRDGAKNTVNLQMNSLKPEDTAVYYCAASSIYGSAVVDGLYDYWGQGTQVTVSS |  |  | Kd [1]: 191 nM
NbhmMMRm7.67 (VHH) VHH: QVQLQESGGGLVQAGGSLRLSCVDQGRTFSVNAMAWYRQAPGKQRELVASITSSGLDTQYAEGMKGRFTISKGNDKFSTYLQMNNLKPDDTAVYYCNAERWDNGMVYWGKGTQVTVSS |  |  | binding result [2]: binds
NbhmMMRm26.70 (VHH) VHH: QVQLQESGGGLVQPGGSLRLSCTASGFPFSSAPMSWVRQAPGKELEWVSYIGYTGTITDYANSVKGRFTISRDNAKNRLYLQMNSLKPEDTAVYFCAQGYARLIADSDLVRGQGTQVTVSS |  |  | binding result [3]: binds; binding result [2]: binds
anti-MMR Nanobody clone 1 (VHH, Monovalent alpaca VHH against mouse MMR; Alexa-fluor labelled for flow cytometry and immunofluorescence; also called Anti-MMR Nb1; anti-MMR Nb clone 1) VHH: QVQLQESGGGLVQPGGSLRLSCAASGNIFSINAIGWYRQAPGKQRELVATITLSGSTNYADSVKGRFSISRDNAKNTVYLQMNSLKPEDTAVYYCNANTYSDSDVYGYWGQGTQVTVSS |  |  | Kd [1]: 23.1 nM; fold higher apparent affinity compared to nanobody clone 3 [4]: 8 fold

Second part, led by results:

fold higher avidity compared to the monovalent clone 1 nanobody [4] | Kd [5] | Binder | further results
5 fold | 4.69 nM | bivalent anti-MMR Nanobody 1 with human IgA hinge linker (VHH, Two copies of Nb clone 1 in one chain joined by the human IgA hinge linker, with a C-terminal His tag; also called biv MMR linker 3 IgA; MMR biv IgA) QVQLQESGGGLVQPGGSLRLSCAASGNIFSINAIGWYRQAPGKQRELVATITLSGSTNYADSVKGRFSISRDNAKNTVYLQMNSLKPEDTAVYYCNANTYSDSDVYGYWGQGTQVTVSSSPSTPPTPSPSTPPASQVQLQESGGGLVQPGGSLRLSCAASGNIFSINAIGWYRQAPGKQRELVATITLSGSTNYADSVKGRFSISRDNAKNTVYLQMNSLKPEDTAVYYCNANTYSDSDVYGYWGQGTQVTVSSHHHHHH | 
5 fold | 4.04 nM | bivalent anti-MMR Nanobody 1 with llama IgG2 hinge linker (VHH, Two copies of Nb clone 1 in one chain joined by the llama IgG2 hinge linker, with a C-terminal His tag; also called biv MMR linker 2 g2c; MMR biv g2c) QVQLQESGGGLVQPGGSLRLSCAASGNIFSINAIGWYRQAPGKQRELVATITLSGSTNYADSVKGRFSISRDNAKNTVYLQMNSLKPEDTAVYYCNANTYSDSDVYGYWGQGTQVTVSSAHHSEDPSSKAPKAPMAQVQLQESGGGLVQPGGSLRLSCAASGNIFSINAIGWYRQAPGKQRELVATITLSGSTNYADSVKGRFSISRDNAKNTVYLQMNSLKPEDTAVYYCNANTYSDSDVYGYWGQGTQVTVSSHHHHHH | 
5 fold | 4.22 nM | bivalent anti-MMR Nanobody 1 with (Gly4Ser)3 linker (VHH, Two copies of Nb clone 1 in one chain joined by a (G4S)3 linker, with a C-terminal His tag; also called biv MMR linker 1 GS; MMR biv (Gly4Ser)3) QVQLQESGGGLVQPGGSLRLSCAASGNIFSINAIGWYRQAPGKQRELVATITLSGSTNYADSVKGRFSISRDNAKNTVYLQMNSLKPEDTAVYYCNANTYSDSDVYGYWGQGTQVTVSSGGGGSGGGGSGGGGSQVQLQESGGGLVQPGGSLRLSCAASGNIFSINAIGWYRQAPGKQRELVATITLSGSTNYADSVKGRFSISRDNAKNTVYLQMNSLKPEDTAVYYCNANTYSDSDVYGYWGQGTQVTVSSHHHHHH | 
